Measurements reported in doi:10.1101/2021.09.24.461537 (bioRxiv, 2021).
Each block holds one molecule with its values, some of them ahead of it.

Columns and labels:
Assay in all cases: ITC
[1] = target: Drosophila Su(H) (98-523) WT (Drosophila) (UniProt P28159)
mouse Rbpj (53-474) WT = mouse Rbpj (53-474) WT (mouse, UniProt P31266 53-474)
mouse Rbpj (53-474) E89G = mouse Rbpj (53-474) E89G (mouse, UniProt P31266 53-474, E89G)
[2] = target: mouse Rbpj (53-474) K195E (mouse, UniProt P31266 53-474, K195E)
mouse Rbpj (53-474) K195E, sequence (P31266 53-474 K195E): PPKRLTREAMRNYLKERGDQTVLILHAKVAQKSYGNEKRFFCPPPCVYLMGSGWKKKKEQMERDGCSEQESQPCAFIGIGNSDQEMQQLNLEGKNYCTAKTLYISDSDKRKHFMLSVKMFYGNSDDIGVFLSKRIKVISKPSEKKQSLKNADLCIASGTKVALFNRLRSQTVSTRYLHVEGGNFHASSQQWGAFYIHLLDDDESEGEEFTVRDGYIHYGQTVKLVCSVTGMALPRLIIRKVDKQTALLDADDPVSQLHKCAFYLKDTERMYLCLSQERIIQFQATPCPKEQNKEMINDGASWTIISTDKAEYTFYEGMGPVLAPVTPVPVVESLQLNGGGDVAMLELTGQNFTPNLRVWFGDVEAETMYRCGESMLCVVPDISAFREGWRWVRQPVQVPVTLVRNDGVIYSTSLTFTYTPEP

mouse Rbpj (53-474) WT, sequence (P31266 53-474): as the sequence (P31266 53-474 K195E) above, with E143K counted along it
mouse Rbpj (53-474) E89G, sequence (P31266 53-474 E89G): as the sequence (P31266 53-474 K195E) above, with E37G, E143K counted along it

- Kd [1]: 0.187 µM
Molecule: Drosophila Notch RAM domain peptide (residues 1763-1790)

- Kd (mouse Rbpj (53-474) WT): ~0.005 µM
- Kd (mouse Rbpj (53-474) E89G): ~0.005 µM
- Kd [2]: 0.021 µM
B1: SHARP residues 2776-2833 (domain or fragment)
chain: RASANENSRFHPGSMPVIDDRPADAGSGAGLRVNTSEGVVLLSYSGQKTEGPQRISAK

- Kd (mouse Rbpj (53-474) WT): ~0.02 µM
- Kd (mouse Rbpj (53-474) E89G): ~0.02 µM
- Kd [2]: ~0.02 µM
B2: Notch1 RAM domain peptide (human Notch1 residues 1754-1781) (peptide)
peptide: VLLSRKRRRQHGQLWFPEGFKVSEASKK
